Reference: paper PMC9976613 (Journal of structural biology, 2018)

Target: the molecule itself
Assay: crystal structure

B1: His6-DcrBΔ37 (domain or fragment, Salmonella enterica, UniProt Q7CPJ3 38-185, looked up)
chain: ASGQPISLMDGKLSFSLPADMTDQSGKLGTQANNMHVYSDPTGQKAVIVIVGDNTDEALPVLANRLLEQQRSRDPQLQVVTNKSIELKGHTLQQLDSIISAKGQTAYSSIVLGKVDNQLLTIQVTLPADNQQKAQTTAENIINTLVIK
  binding result: binds
